From paper PMC5669500, “Scaffolding the cup-shaped double membrane in autophagy” (PLoS Computational Biology, 2017)
Numbering of substitutions follows the chain as printed.

Legend:
Assay in all cases: pull-down; 20 μg GST-Atg13 (351–458) immobilised on 30 μL Glutathione Sepharose 4B; Atg17-Atg31-Atg29 complex at 10 μM; 4°C, 1 hour; 20 mM Tris pH 8, 150 mM NaCl, 0.1 mM TCEP; 3 washes; SDS-PAGE
Conditions in all cases: both partners purified
[1] = molecular target: T1, Atg17-Atg31-Atg29 complex with Atg17 mutant M1 (K318D/Q326D/K329D) (Saccharomyces cerevisiae, UniProt Q06410 1-417; Q12421 1-196; Q12092 1-213, K318D | Q326D | K329D)
T1 construct: Atg17, Saccharomyces cerevisiae; Atg31, Saccharomyces cerevisiae; Atg29, Saccharomyces cerevisiae; a TEV cleavage site follows the His6 tag; Mutations introduced into the Atg17-Atg31-Atg29 construct by quick-change mutagenesis; source: E. coli BL21 (DE3), co-expressed from pST39, purified (Ni-NTA, Superose 6); copies: 2 + +
T1 sequence (looked up) 1: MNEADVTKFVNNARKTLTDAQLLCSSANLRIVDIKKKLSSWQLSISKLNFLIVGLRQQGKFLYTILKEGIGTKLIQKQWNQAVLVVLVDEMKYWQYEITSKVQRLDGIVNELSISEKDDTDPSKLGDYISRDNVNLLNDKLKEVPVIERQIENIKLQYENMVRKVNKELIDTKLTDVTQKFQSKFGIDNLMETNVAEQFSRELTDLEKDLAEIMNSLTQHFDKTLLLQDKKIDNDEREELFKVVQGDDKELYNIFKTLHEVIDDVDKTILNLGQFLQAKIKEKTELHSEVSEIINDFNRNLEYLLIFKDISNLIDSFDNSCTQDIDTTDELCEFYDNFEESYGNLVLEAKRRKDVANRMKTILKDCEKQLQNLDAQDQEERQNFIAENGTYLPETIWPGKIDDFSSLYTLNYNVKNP
T1 sequence (looked up) 2: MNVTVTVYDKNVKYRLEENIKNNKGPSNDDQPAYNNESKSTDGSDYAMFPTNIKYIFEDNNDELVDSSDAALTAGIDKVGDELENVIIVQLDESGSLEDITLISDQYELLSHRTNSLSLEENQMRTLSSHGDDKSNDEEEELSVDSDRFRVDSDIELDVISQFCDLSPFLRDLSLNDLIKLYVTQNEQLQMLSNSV
T1 sequence (looked up) 3: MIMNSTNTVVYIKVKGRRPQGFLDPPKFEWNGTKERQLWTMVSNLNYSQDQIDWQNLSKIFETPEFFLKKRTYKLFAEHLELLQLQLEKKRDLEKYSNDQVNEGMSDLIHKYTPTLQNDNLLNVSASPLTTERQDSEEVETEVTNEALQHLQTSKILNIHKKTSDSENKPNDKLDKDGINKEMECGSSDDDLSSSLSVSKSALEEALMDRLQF

[2] = molecular target: T2, Atg17-Atg31-Atg29 complex with Atg17 mutant M5 (K92D/L141D) (Saccharomyces cerevisiae, UniProt Q06410 1-417; Q12421 1-196; Q12092 1-213, K92D | L141D)
T2 construct: Atg17, Saccharomyces cerevisiae; Atg31, Saccharomyces cerevisiae; Atg29, Saccharomyces cerevisiae; a TEV cleavage site follows the His6 tag; Mutations introduced into the Atg17-Atg31-Atg29 construct by quick-change mutagenesis; source: E. coli BL21 (DE3), co-expressed from pST39, purified (Ni-NTA, Superose 6); copies: 2 + +
T2 sequence (looked up) 1: T1 sequence (looked up) 1 with K92D, L141D, D318K, D326Q, D329K
T2 sequence (looked up) 2: T1 sequence (looked up) 2
T2 sequence (looked up) 3: T1 sequence (looked up) 3

[3] = molecular target: T3, Atg17-Atg31-Atg29 complex, wild type (Saccharomyces cerevisiae, UniProt Q06410 1-417; Q12421 1-196; Q12092 1-213)
T3 construct: Atg17, Saccharomyces cerevisiae; Atg31, Saccharomyces cerevisiae; Atg29, Saccharomyces cerevisiae; a TEV cleavage site follows the His6 tag; Atg17 is described as a dimer; cleavage of the His6 tag by TEV is not mentioned; also called recombinant ternary complex; Atg17-Atg31-Atg29 subcomplex of Atg1; source: E. coli BL21 (DE3), co-expressed from pST39, purified (Ni-NTA, Superose 6); copies: 2 + +
T3 sequence (looked up) 1: T1 sequence (looked up) 1 with D318K, D326Q, D329K
T3 sequence (looked up) 2: T1 sequence (looked up) 2
T3 sequence (looked up) 3: T1 sequence (looked up) 3

- binding result [1]: binds
- binding result [2]: binds
- binding result [3]: binds
B1: GST-Atg13 (351–458) (domain or fragment, Saccharomyces cerevisiae, UniProt Q06628 351-458, looked up)
chain: TRANSFEPQSWQKKVYPISRPVQPFKVGSIGSQSASRNPSNSSFFNQPPVHRPSMSSNYGPQMNIEGTSVGSTSKYSSSFGNIRRHSSVKTTENAEKVSKAVKSPLQP
notes: a TEV cleavage site follows the GST tag; source: recombinant from pGST2 vector, purified (Glutathione Sepharose 4B, HiLoad Superdex 200 16/60); not shown: GST, N-terminal, kept
